# Measured values: the Immune Epitope Database (IEDB)
# Columns and labels:
# Assay in all cases: IEDB peptide-MHC binding, purified MHC/competitive/fluorescence; filed as Kd, often an IC50 or EC50 that approximates it; ≥ and ≤ were set here for values at or beyond the usual limits of such assays
# Settings in all cases: source organism: Rickettsia akari str. Hartford
# HLA-B*07:02 = target: HLA-B*07:02
# HLA-B*51:01 = target: HLA-B*51:01
# HLA-A*29:02 = target: HLA-A*29:02
# HLA-A*02:03 = target: HLA-A*02:03
# HLA-A*66:01 = target: HLA-A*66:01
# HLA-A*26:01 = target: HLA-A*26:01
# HLA-B*15:17 = target: HLA-B*15:17
# HLA-B*15:01 = target: HLA-B*15:01
# HLA-B*27:03 = target: HLA-B*27:03
# HLA-A*01:01 = target: HLA-A*01:01
# HLA-A*03:01 = target: HLA-A*03:01
# HLA-A*24:03 = target: HLA-A*24:03
# HLA-A*23:01 = target: HLA-A*23:01
# HLA-B*18:01 = target: HLA-B*18:01
# HLA-B*57:01 = target: HLA-B*57:01
# HLA-A*02:01 = target: HLA-A*02:01
# HLA-B*44:02 = target: HLA-B*44:02
# HLA-A*30:01 = target: HLA-A*30:01
# HLA-A*02:16 = target: HLA-A*02:16
# HLA-B*08:01 = target: HLA-B*08:01
# HLA-B*46:01 = target: HLA-B*46:01
# HLA-B*14:02 = target: HLA-B*14:02
# HLA-A*69:01 = target: HLA-A*69:01
# HLA-A*02:19 = target: HLA-A*02:19
sequence,measurement,setting,value
FTARIIIFS,Kd,HLA-B*07:02,≥ 5 µM
same,Kd,HLA-B*51:01,≥ 20 µM
same,Kd,HLA-A*29:02,≥ 20 µM
same,Kd,HLA-A*02:03,≥ 20 µM
same,Kd,HLA-A*66:01,3 µM
same,Kd,HLA-A*26:01,≥ 20 µM
same,Kd,HLA-B*15:17,≥ 20 µM
same,Kd,HLA-B*15:01,≥ 20 µM
same,Kd,HLA-B*27:03,≥ 20 µM
same,Kd,HLA-A*01:01,≥ 5 µM
same,Kd,HLA-A*03:01,≥ 20 µM
same,Kd,HLA-A*24:03,≥ 20 µM
same,Kd,HLA-A*23:01,≥ 20 µM
same,Kd,HLA-B*18:01,≥ 20 µM
same,Kd,HLA-B*57:01,≥ 20 µM
same,Kd,HLA-A*02:01,≥ 20 µM
same,Kd,HLA-B*44:02,≥ 5 µM
same,Kd,HLA-A*30:01,≥ 5 µM
same,Kd,HLA-A*02:16,≥ 20 µM
same,Kd,HLA-B*08:01,≥ 5 µM
same,Kd,HLA-B*46:01,≥ 20 µM
same,Kd,HLA-B*14:02,≥ 5 µM
same,Kd,HLA-A*69:01,≥ 20 µM
same,Kd,HLA-A*02:19,≥ 20 µM
